Key:
SNX5 PX domain = target: T1, SNX5 PX domain (UniProt Q9Y5X3 25-172); test: ITC; Microcal ITC200, 298 K; 50 mM Hepes pH 7.5, 200 mM NaCl, 0.5 mM TCEP; SNX5/6 PX titrated with NRP1 peptide, 13 injections; single site binding model; mean of three experiments; conditions: both partners purified
T1 construct: PX domain of sorting nexin 5, from a pGEX-4T-2 construct; also called PX domain of SNX5; source: E. coli BL21 (DE3), purified (glutathione Sepharose 4B, thrombin cleavage, Superdex 75 gel filtration)
T1 sequence (looked up): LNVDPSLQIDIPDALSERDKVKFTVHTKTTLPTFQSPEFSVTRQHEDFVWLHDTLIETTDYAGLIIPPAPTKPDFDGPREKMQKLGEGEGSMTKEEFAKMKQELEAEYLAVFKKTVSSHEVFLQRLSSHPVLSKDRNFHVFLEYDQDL

SNX6 PX domain = target: T2, SNX6 PX domain (UniProt Q9UNH7 26-173); test: as above; conditions: both partners purified
T2 construct: PX domain of sorting nexin 6, from a pGEX-4T-2 construct; also called PX domain of SNX6; source: E. coli BL21 (DE3), purified (glutathione Sepharose 4B, thrombin cleavage, Superdex 75 gel filtration)
T2 sequence (looked up): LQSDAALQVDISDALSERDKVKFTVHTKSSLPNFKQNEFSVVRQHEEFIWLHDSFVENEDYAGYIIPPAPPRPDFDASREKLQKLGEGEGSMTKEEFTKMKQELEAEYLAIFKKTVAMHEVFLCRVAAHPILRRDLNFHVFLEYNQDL

B1: NRP1 peptide (residues 894 to 918 of the cytosolic tail) (peptide)
peptide: not shown
notes: Neuropilin-1 cytosolic tail, residues 894 to 918; only stretches of it are printed (898-NYNFELV-904, 905-DG-906, 907-VKLKKD-912); also called synthetic peptide corresponding to these residues in NRP1; source: synthetic peptide
Which Kd (SNX5 PX domain) does the source give for B1 here?
The Kd was 19.8 µM.

And the Kd (SNX6 PX domain)?
The Kd was 14.3 µM.

From article PMC9231623, “ESCPE-1 mediates retrograde endosomal sorting of the SARS-CoV-2 host factor Neuropilin-1” (Proceedings of the National Academy of Sciences of the …, 2022)
